Results taken from the Immune Epitope Database (IEDB).

Assays:
HLA-C*15:02 = assay: IEDB peptide-MHC binding, purified MHC/direct/fluorescence; filed as Kd, often an IC50 or EC50 that approximates it; ≥ and ≤ were set here for values at or beyond the usual limits of such assays; details: source organism: Listeria monocytogenes EGD-e
HLA-A*24:03 = assay: as above
HLA-C*07:02 = assay: as above; details: source organism: Listeria monocytogenes EGD-e
HLA-C*14:02 = assay: as above; details: source organism: Listeria monocytogenes EGD-e
HLA-A*24:02 = assay: IEDB peptide-MHC binding, purified MHC/competitive/fluorescence; filed as Kd, often an IC50 or EC50 that approximates it; ≥ and ≤ were set here for values at or beyond the usual limits of such assays
HLA-A*26:01 = assay: IEDB peptide-MHC binding, purified MHC/direct/fluorescence; filed as Kd, often an IC50 or EC50 that approximates it; ≥ and ≤ were set here for values at or beyond the usual limits of such assays
HLA-A*26:02 = assay: IEDB peptide-MHC binding, purified MHC/competitive/fluorescence; filed as Kd, often an IC50 or EC50 that approximates it; ≥ and ≤ were set here for values at or beyond the usual limits of such assays; details: source organism: Hantaan virus 76-118
HLA-B*57:01 = assay: IEDB peptide-MHC binding, purified MHC/direct/fluorescence; filed as Kd, often an IC50 or EC50 that approximates it; ≥ and ≤ were set here for values at or beyond the usual limits of such assays
HLA-B*27:03 = assay: as above
HLA-B*39:01 = assay: as above
HLA-A*03:01 = assay: as above
HLA-A*02:01 [1] = assay: as above
HLA-A*02:03 = assay: as above
HLA-A*02:11 = assay: as above
HLA-A*02:16 = assay: as above
HLA-A*68:02 = assay: as above; details: source organism: Crocodilepox virus
HLA-A*02:19 = assay: as above
HLA-A*02:12 = assay: as above
HLA-B*51:01 = assay: as above
HLA-C*08:02 = assay: as above
HLA-A*02:01 [2] = assay: IEDB peptide-MHC binding, purified MHC/competitive/fluorescence; filed as Kd, often an IC50 or EC50 that approximates it; ≥ and ≤ were set here for values at or beyond the usual limits of such assays; details: source organism: Yersinia pestis Nepal516
HLA-B*35:01 = assay: as above; details: source organism: Yersinia pestis Nepal516
HLA-A*80:01 = assay: IEDB peptide-MHC binding, purified MHC/direct/fluorescence; filed as Kd, often an IC50 or EC50 that approximates it; ≥ and ≤ were set here for values at or beyond the usual limits of such assays; details: source organism: Yellow fever virus
HLA-A*69:01 = assay: as above
HLA-B*46:01 = assay: as above
HLA-B*15:17 = assay: as above
HLA-A*29:02 = assay: as above; details: source organism: Entamoeba histolytica HM-1:IMSS
HLA-B*15:01 = assay: as above
HLA-B*18:01 = assay: as above
HLA-A*11:01 = assay: as above; details: source organism: Giardia lamblia ATCC 50803
HLA-B*58:01 = assay: as above; details: source organism: Giardia lamblia ATCC 50803
HLA-B*40:01 = assay: as above; details: source organism: Giardia lamblia ATCC 50803
HLA-B*08:02 = assay: as above; details: source organism: Giardia lamblia ATCC 50803
HLA-A*31:01 = assay: as above; details: source organism: Giardia lamblia ATCC 50803
HLA-B*38:01 = assay: as above; details: source organism: Giardia lamblia ATCC 50803
HLA-B*08:01 = assay: as above; details: source organism: Giardia lamblia ATCC 50803
HLA-B*27:05 = assay: as above; details: source organism: Giardia lamblia ATCC 50803
HLA-B*07:02 = assay: as above; details: source organism: Giardia lamblia ATCC 50803
HLA-B*48:01 = assay: as above; details: source organism: Giardia lamblia ATCC 50803
HLA-A*01:01 = assay: as above; details: source organism: Giardia lamblia ATCC 50803
[3] = source organism: Listeria monocytogenes EGD-e
[4] = source organism: Crocodilepox virus
[5] = source organism: Yellow fever virus
[6] = source organism: Entamoeba histolytica HM-1:IMSS
[7] = source organism: Brucella suis 1330
[8] = source organism: Giardia lamblia ATCC 50803

RYPRSVLTF
Kd (HLA-C*15:02): ≥ 20 µM
Kd (HLA-A*24:03; [3]): ≤ 0.001 µM
Kd (HLA-C*07:02): 0.044 µM
Kd (HLA-C*14:02): ≤ 0.001 µM
Kd (HLA-A*24:02; [3]): ≤ 0.0001 µM

ETYKELKAH
Kd (HLA-A*26:01; source organism: Orthohantavirus hantanense): 0.25 µM
Kd (HLA-A*26:02): 0.0118 µM

SWFNSFLTHAL
Kd (HLA-A*24:02; source organism: Influenza A virus (A/X-31(H3N2))): 0.15 µM

VVARLGVPY
Kd (HLA-B*57:01; [4]): ≥ 20 µM
Kd (HLA-B*27:03; [4]): ≥ 20 µM
Kd (HLA-B*39:01; [4]): ≥ 20 µM
Kd (HLA-A*03:01; [4]): ≥ 20 µM
Kd (HLA-A*02:01 [1]; [4]): ≥ 20 µM
Kd (HLA-A*02:03; [4]): ≥ 20 µM
Kd (HLA-A*02:11; [4]): ≥ 20 µM
Kd (HLA-A*24:03; [4]): ≥ 20 µM
Kd (HLA-A*02:16; [4]): ≥ 20 µM
Kd (HLA-A*68:02): ≥ 20 µM
Kd (HLA-A*26:01; [4]): ≥ 20 µM
Kd (HLA-A*02:19; [4]): ≥ 20 µM
Kd (HLA-A*02:12; [4]): ≥ 20 µM
Kd (HLA-B*51:01; [4]): ≥ 20 µM

FVADYLARF
Kd (HLA-C*08:02; source organism: Yersinia pestis Nepal516): 2.77 µM
Kd (HLA-A*02:01 [2]): 0.082 µM
Kd (HLA-B*35:01): 0.0033 µM

LYKKLKREITF
Kd (HLA-A*24:02; source organism: Influenza A virus (A/goose/Hong Kong/437-6/1999(H5N1))): 0.0051 µM

GTGDSRLTY
Kd (HLA-A*80:01): 0.2 µM
Kd (HLA-A*02:01 [1]; [5]): ≥ 20 µM
Kd (HLA-A*69:01; [5]): ≥ 20 µM

RYGPALSI
Kd (HLA-A*24:02; source organism: Influenza A virus H3N2): ≤ 0.0001 µM

DSFAKQPQW
Kd (HLA-B*27:03; [6]): ≥ 20 µM
Kd (HLA-B*46:01; [6]): ≥ 20 µM
Kd (HLA-B*39:01; [6]): ≥ 20 µM
Kd (HLA-B*15:17; [6]): 0.204 µM
Kd (HLA-A*03:01; [6]): ≥ 20 µM
Kd (HLA-A*02:01 [1]; [6]): ≥ 20 µM
Kd (HLA-A*02:03; [6]): ≥ 20 µM
Kd (HLA-A*02:11; [6]): ≥ 20 µM
Kd (HLA-A*24:03; [6]): ≥ 20 µM
Kd (HLA-A*29:02): ≥ 20 µM
Kd (HLA-A*02:16; [6]): ≥ 20 µM
Kd (HLA-A*69:01; [6]): ≥ 20 µM
Kd (HLA-A*26:01; [6]): ≥ 20 µM
Kd (HLA-A*02:19; [6]): ≥ 20 µM
Kd (HLA-A*02:12; [6]): ≥ 20 µM
Kd (HLA-B*15:01; [6]): ≥ 20 µM

DPPEPLVRI
Kd (HLA-B*57:01; [7]): ≥ 20 µM
Kd (HLA-B*27:03; [7]): ≥ 20 µM
Kd (HLA-B*46:01; [7]): ≥ 20 µM
Kd (HLA-B*39:01; [7]): ≥ 20 µM
Kd (HLA-A*03:01; [7]): ≥ 20 µM
Kd (HLA-A*02:01 [1]; [7]): ≥ 20 µM
Kd (HLA-A*02:03; [7]): ≥ 20 µM
Kd (HLA-B*18:01; [7]): ≥ 20 µM
Kd (HLA-A*02:16; [7]): ≥ 20 µM
Kd (HLA-A*69:01; [7]): ≥ 20 µM
Kd (HLA-A*26:01; [7]): ≥ 20 µM
Kd (HLA-A*02:19; [7]): ≥ 20 µM
Kd (HLA-A*02:12; [7]): ≥ 20 µM
Kd (HLA-B*51:01; [7]): 1.87 µM
Kd (HLA-B*15:01; [7]): ≥ 20 µM

QPWTPVSSF
Kd (HLA-A*11:01): ≥ 20 µM
Kd (HLA-B*58:01): 19.1 µM
Kd (HLA-B*40:01): ≥ 20 µM
Kd (HLA-B*08:02): ≥ 20 µM
Kd (HLA-B*57:01; [8]): ≥ 20 µM
Kd (HLA-A*31:01): ≥ 20 µM
Kd (HLA-B*46:01; [8]): ≥ 20 µM
Kd (HLA-B*15:17; [8]): 2.62 µM
Kd (HLA-A*03:01; [8]): ≥ 20 µM
Kd (HLA-A*02:01 [1]; [8]): ≥ 20 µM
Kd (HLA-B*38:01): ≥ 20 µM
Kd (HLA-B*08:01): ≥ 20 µM
Kd (HLA-B*27:05): ≥ 20 µM
Kd (HLA-B*18:01; [8]): 2.44 µM
Kd (HLA-B*07:02): 0.134 µM
Kd (HLA-A*69:01; [8]): ≥ 20 µM
Kd (HLA-A*26:01; [8]): ≥ 20 µM
Kd (HLA-B*48:01): ≥ 20 µM
Kd (HLA-A*01:01): ≥ 20 µM
Kd (HLA-B*51:01; [8]): ≥ 20 µM
Kd (HLA-B*15:01; [8]): ≥ 20 µM

GVEGIGLQY
Kd (HLA-A*80:01): 0.338 µM

STAPTGSWF
Kd (HLA-C*08:02; source organism: human gammaherpesvirus 4): ≥ 20 µM
